Results published in patent US7425614B2, “Neuroprotective therapeutics preventing ERK/MAPK activation through the NMDA receptor” (Children's Medical Center Corporation, priority 2003, dated 2008).

Molecular target: T1, RasGRF1 (Mus musculus, UniProt P27671)
T1 construct: In vitro translated full-length RasGRF1 and AU1-tagged NR2B fragments were coimmunopecipitated with AU1 antibody; made in house; host or cells: cell-free in vitro translation (TNT system, [35S]methionine)
T1 sequence (P27671 1-1262): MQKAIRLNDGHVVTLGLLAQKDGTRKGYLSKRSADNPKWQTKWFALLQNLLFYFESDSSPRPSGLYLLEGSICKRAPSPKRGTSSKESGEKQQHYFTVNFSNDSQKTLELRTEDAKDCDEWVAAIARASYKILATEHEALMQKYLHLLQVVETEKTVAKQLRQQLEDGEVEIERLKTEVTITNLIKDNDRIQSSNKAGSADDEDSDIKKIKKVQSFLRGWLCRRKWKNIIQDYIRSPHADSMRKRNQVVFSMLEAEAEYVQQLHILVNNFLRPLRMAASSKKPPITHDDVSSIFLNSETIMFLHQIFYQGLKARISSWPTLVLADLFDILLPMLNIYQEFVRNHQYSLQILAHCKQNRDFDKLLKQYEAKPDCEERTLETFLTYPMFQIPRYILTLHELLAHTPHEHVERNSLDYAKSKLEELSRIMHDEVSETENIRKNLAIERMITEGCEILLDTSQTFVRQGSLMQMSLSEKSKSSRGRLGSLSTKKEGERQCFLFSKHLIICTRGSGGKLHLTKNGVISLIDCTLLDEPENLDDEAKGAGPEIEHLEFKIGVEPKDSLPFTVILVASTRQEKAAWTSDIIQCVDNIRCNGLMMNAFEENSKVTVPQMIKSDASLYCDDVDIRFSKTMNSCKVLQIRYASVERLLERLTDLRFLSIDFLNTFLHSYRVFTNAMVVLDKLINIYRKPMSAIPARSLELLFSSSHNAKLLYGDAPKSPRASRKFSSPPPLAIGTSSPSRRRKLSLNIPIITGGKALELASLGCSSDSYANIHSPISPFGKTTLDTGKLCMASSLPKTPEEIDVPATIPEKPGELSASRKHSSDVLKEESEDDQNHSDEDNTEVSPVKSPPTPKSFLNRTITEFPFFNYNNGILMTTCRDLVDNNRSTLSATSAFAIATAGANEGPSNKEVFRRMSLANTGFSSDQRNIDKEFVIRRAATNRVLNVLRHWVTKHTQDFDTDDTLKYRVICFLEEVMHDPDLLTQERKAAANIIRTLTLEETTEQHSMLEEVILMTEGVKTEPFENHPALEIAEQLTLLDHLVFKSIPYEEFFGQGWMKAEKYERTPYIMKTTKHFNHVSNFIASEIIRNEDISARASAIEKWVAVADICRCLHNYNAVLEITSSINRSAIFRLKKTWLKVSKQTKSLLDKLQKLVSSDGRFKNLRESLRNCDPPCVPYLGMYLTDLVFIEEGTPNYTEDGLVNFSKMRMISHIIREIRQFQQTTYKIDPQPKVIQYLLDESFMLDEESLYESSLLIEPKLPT
Test: pull-down / in vitro binding of NR2B fragments with in vitro translated RasGRF1
Source text: For in vitro translation, fragments of rat NR2B and rat RasGRF1 were made by PCR with 5′-primers containing AU1- and HA-tag encoding sequences; amplified sequences were subcloned into pcDNA3.1. For 293T transfection, the following cDNAs were used: mouse RasGRF1 in pcDNA3, GFP-rat NR2B, GFP rat NR2A in pcDNA1.1, and rat NR1 in pEGFP-C1 (Clontech). EGFP fusion constructs were made by subcloning cDNA fragments encoding different portions of NR2B and RasGRF1 into pEGFP-C1 (Clontech). EGFP fusion constructs were transferred from pEGFP into pSinRep5 and used for preparation of the Sindbis pseudovirus gene transfer system according to the manufacturer's protocol (Invitrogen, Carlsbad, Calif.).
Mouse RasGRF1 in pcDNA3 (Martegani, E., et al. (1992) EMBO J. 11, 2151-2157) was translated in vitro using the TNT system (Invitrogen) and [^35S]methionine. […]
For in vitro binding experiments, equimolar amounts of in vitro translated ^35S-labeled proteins (calculated from radioactivity of the excised protein band and cysteine content in the specific fragment) were incubated with a 3-fold molar excess of translated RasGRF1 for 30 min at 30° C., diluted with RIPA buffer, and immunoprecipitated with anti-HA-agarose (Santa Cruz). […]

B1: NR2B-BD: peptide of amino acids 886-1310 of the NR2B C-terminal domain that binds RasGRF1; used as NusA or EGFP fusion (protein)
chain: SPTATMNNTHSNILRLLRTAKNMANLSGVNGSPQSALDFIRRESSVYDISEHRRSFTHSDCKSYNNPPCEENLFSDYISEVERTFGNLQLKDSNVYQDHYHHHHRPHSIGSTSSIDGLYDCDNPPFTTQPRSISKKPLDIGLPSSKHSQLSDLYGKFSFKSDRYSGHDDLIRSDVSDISTHTVTYGNIEGNAAKRRKQQYKDSLKKRPASAKSRREFDEIELAYRRRPPRSPDHKRYFRDKEGLRDFYLDQFRTKENSPHWEHVDLTDIYKERSDDFKRDSVSGGGPCTNRSHLKHGTGEKHGVVGGVPAPWEKNLTNVDWEDRSGGNFCRSCPSKLHNYSSTVAGQNSGRQACIRCEACKKAGNLYDISKDNSLQELDQPAAPVAVTSNASSTKYPQSPTNSKAQKKNRNKLRRQHSYDTFVDL
modifications: left off: small tags and cut ends
notes: used as NusA or EGFP fusion
- binding to RasGRF1 in vitro: bound
